Measurements published in the supplement of paper PMC7125110.
± gives the standard error. For part of these data: Fewer inactive variants are shown than the library holds.

B1: glmS ribozyme (parent)
chain: AUAAAAGCGCCAGAACUACAGAAAUGUAGUUGACGAGGAGGAGGUUUAUCGAAUUUUCGGCGGAUGCCUCCAAA

Assays:
Details in all cases: with glucosamine-6-phosphate
[1] = variants of: B1; assay: kcat; higher = faster cleavage; RNA array
Outline: (§1)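 kobs was derived by fitting per-tile medians to one- or two-exponential decays after normalising signals to baseline and to non-cleaving reference variants. Those signals came from barcoded ribozyme variants transcribed in situ by E. coli RNA polymerase on sequenced MiSeq chips, followed through a hybridised Cy3 probe at 37 °C and imaged over ~14 h. Glucosamine-6-phosphate (40 μM to 10 mM) in HEPES/KCl/Mg(OAc)2 buffer was flowed in. Weighted Michaelis–Menten fits across concentrations then gave kcat and KM.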

[2] = variants of: B1; assay: self-cleavage kobs at 640 uM GlcN6P; higher = faster cleavage; RNA array
Outline: as §1

[3] = variants of: B1; assay: self-cleavage kobs at 2500 uM GlcN6P; higher = faster cleavage; RNA array
Outline: as §1

[4] = variants of: B1; assay: self-cleavage kobs at 10000 uM GlcN6P; higher = faster cleavage; RNA array
Outline: as §1

[5] = variants of: B1; assay: KM; higher = weaker cofactor use; RNA array
Outline: as §1

[6] = variants of: B1; assay: self-cleavage kobs at 160 uM GlcN6P; higher = faster cleavage; RNA array
Outline: as §1

[7] = variants of: B1; assay: self-cleavage kobs at 40 uM GlcN6P; higher = faster cleavage; RNA array
Outline: as §1

Row | Variant | kcat [1] [s⁻¹] | self-cleavage kobs at 640 uM GlcN6P [2] [s⁻¹] | self-cleavage kobs at 2500 uM GlcN6P [3] [s⁻¹] | self-cleavage kobs at 10000 uM GlcN6P [4] [s⁻¹] | KM [5] [µM] | self-cleavage kobs at 160 uM GlcN6P [6] [s⁻¹] | self-cleavage kobs at 40 uM GlcN6P [7] [s⁻¹]
1 | A12U G29A A52U | 0.000494 ± 0.00016 | 4.42e-05 ± 1.6e-05 | 0.00021 ± 6.6e-05 | 0.000309 ± 7.1e-05 |  |  | 
2 | G13A G21U G37U C70U | < 1e-05 |  | < 1e-05 |  |  |  | 
3 | G13C C70U | 0.000154 ± 4.9e-06 | 4.57e-05 ± 8.9e-06 | 0.000103 ± 1.2e-05 | 0.000134 ± 1e-05 | 1400 ± 140 |  | 
4 | G13C C70A | 1.11e-05 ± 3.3e-06 |  |  |  |  |  | 
5 | A14C C70A | 0.000106 ± 1.1e-05 | 5.59e-05 ± 6.8e-06 | 9.55e-05 ± 8e-06 | 0.000102 ± 9.4e-06 | 413 ± 170 | 4.49e-05 ± 9.3e-06 | 
6 | G13U A48U | < 1e-05 |  |  |  |  | < 1e-05 | 
7 | G13C C16U | 0.0002194 ± 1.1e-06 |  | 8.19e-05 ± 2.5e-05 | 0.000155 ± 1.9e-05 | 4190 ± 58 |  | 
8 | G13U A36C | < 1e-05 |  |  | < 1e-05 |  |  | 
9 | G13C A53G | 0.000174 ± 2.8e-05 | 2.97e-05 ± 9e-06 | 7.05e-05 ± 7.7e-06 | 0.00013 ± 1.9e-05 | 3550 ± 1100 |  | 
10 | G13U U31A | 0.000483 ± 4.9e-05 | 6.93e-05 ± 1.3e-05 | 0.000216 ± 3.6e-05 | 0.000346 ± 3.6e-05 | 3730 ± 740 |  | 
11 | A14C C58A | 0.000221 ± 1.4e-05 | 3.29e-05 ± 1.1e-05 | 0.000102 ± 1.6e-05 | 0.000165 ± 1.7e-05 | 3250 ± 500 |  | 
12 | G13U C58G | 0.000545 ± 0.00027 | 9.89e-05 ± 1.6e-05 | 0.000127 ± 2e-05 | 0.000381 ± 3.9e-05 |  |  | 
13 | G13C A52G | 1.51e-05 ± 1.5e-06 |  |  |  | 3660 ± 1000 |  | 
14 | G13A G40C | 5.83e-05 ± 8.4e-06 |  | 2.55e-05 ± 7.4e-06 | 4.56e-05 ± 9.9e-06 | 2940 ± 1100 |  | < 1e-05
15 | G13A G40A | 0.000179 ± 1.9e-05 |  | 5.48e-05 ± 1.2e-05 | 0.00011 ± 1.8e-05 | 6100 ± 1200 |  | 
16 | G13C U56G | 0.000107 ± 9.4e-06 |  | 5.37e-05 ± 1.7e-05 | 8.26e-05 ± 1.2e-05 | 2860 ± 820 |  | 
17 | G13U C70G | 4.04e-05 ± 3e-06 | 4.63e-05 ± 9.7e-06 | 3.94e-05 ± 6.3e-06 | 3.71e-05 ± 6.7e-06 |  |  | 
18 | A14C G29A A53U G59A C68U | < 1e-05 |  |  |  |  |  | 

Row | Variant | kcat [1] [s⁻¹] | self-cleavage kobs at 640 uM GlcN6P [2] [s⁻¹] | self-cleavage kobs at 2500 uM GlcN6P [3] [s⁻¹] | self-cleavage kobs at 10000 uM GlcN6P [4] [s⁻¹] | KM [5] [µM] | self-cleavage kobs at 160 uM GlcN6P [6] [s⁻¹] | self-cleavage kobs at 40 uM GlcN6P [7] [s⁻¹]
19 | A14C G32A | 0.00779 ± 0.0028 | 0.0014 ± 0.00034 | 0.00183 ± 0.00065 | 0.00702 ± 0.00097 |  | 0.000388 ± 0.00011 | 0.000121 ± 2.5e-05
20 | G13U U45A | 0.00214 ± 0.00039 | 0.000543 ± 0.00015 | 0.00117 ± 0.00036 |  | 2010 ± 490 | 0.000142 ± 5.1e-05 | 4.66e-05 ± 2.1e-05
21 | G13A U56C | 0.000422 ± 7.9e-06 |  | 8.37e-05 ± 2e-05 | 0.00021 ± 3.7e-05 |  |  | 
22 | G13A U56G | 0.000892 ± 0.0002 | 0.000128 ± 1.8e-05 | 0.000264 ± 5.9e-05 | 0.000696 ± 8.2e-05 | 3800 ± 1300 | 4.73e-05 ± 9.8e-06 | 
23 | A14C C68G | 2.74e-05 ± 5.8e-06 | 4.49e-05 ± 1.5e-05 |  | 2.58e-05 ± 8.4e-06 |  |  | 
24 | A12U G44A | 0.00153 ± 0.00047 | 0.000437 ± 5.9e-05 | 0.00103 ± 0.00013 | 0.000973 ± 0.0002 | 2200 ± 960 | 8.78e-05 ± 1.3e-05 | 
25 | G13C U31A | 0.000405 ± 2e-05 | 7.16e-05 ± 1.3e-05 | 0.00017 ± 3.3e-05 | 0.000314 ± 4.2e-05 | 3100 ± 280 |  | 
26 | G13U G29A | 0.000411 ± 4.9e-05 | 3.19e-05 ± 1.3e-05 | 0.000121 ± 2.2e-05 | 0.000246 ± 4.2e-05 | 6480 ± 1300 |  | 
27 | G13U C71A | 0.000178 ± 1.7e-05 | 5.95e-05 ± 1.2e-05 | 0.000151 ± 2.5e-05 | 0.000154 ± 1.8e-05 | 1130 ± 300 |  | 
28 | G13A A52G | 6.74e-05 ± 2.2e-06 |  | 4.85e-05 ± 1.2e-05 | 6.07e-05 ± 1.1e-05 | 1040 ± 140 |  | 
29 | A14G A33C | 0.000125 ± 5.4e-06 | 3.41e-05 ± 1.4e-05 | 8.25e-05 ± 1.2e-05 | 0.000108 ± 1.2e-05 | 1470 ± 220 |  | 
30 | G13C A15G | 0.000223 ± 1.1e-05 | 4.12e-05 ± 8e-06 | 9.91e-05 ± 1.3e-05 | 0.000176 ± 2.8e-05 | 2950 ± 270 |  | 
31 | G13C A15U | 0.000131 ± 1.4e-05 | 3.78e-05 ± 1e-05 | 5.63e-05 ± 7.5e-06 | 0.000103 ± 6.3e-06 | 2810 ± 940 |  | 
32 | A12U G60U G66C C68U | < 1e-05 |  |  | < 1e-05 |  |  | 
33 | G13C C67G | 1.33e-05 ± 8.3e-07 |  |  |  | 189 ± 76 |  | 
34 | G13U U30A | 5.44e-05 ± 3.6e-06 | 3.03e-05 ± 1.5e-05 | 3.78e-05 ± 1.1e-05 | 5.22e-05 ± 8.6e-06 | 728 ± 260 |  | 
35 | G13U U30C | 0.000509 ± 0.00014 | 6.12e-05 ± 1.2e-05 | 0.000253 ± 3.1e-05 | 0.000354 ± 4.9e-05 | 3530 ± 1600 | 3.75e-05 ± 1e-05 | 
36 | G13A G29U | 5.33e-05 ± 7.9e-06 |  | 4.84e-05 ± 1e-05 | 4.7e-05 ± 8e-06 |  |  | 
